Consider 1 substance from publication PMC9371665.

For this experiment, the target named is TnsB transposase of the type V-K CAST element from Scytonema hofmanni (ShCAST), full length (Scytonema hofmanni). Description: cryo-EM structure; TnsB strand-transfer complex: strand-transfer DNA and purified TnsB mixed 1:6, 26 mM Hepes pH 7.5, 5 mM Tris-HCl pH 7.5, 20 mM KCl, 100 mM NaCl, 0.2 mM MgCl2, 15 mM MgOAc2, 37 °C 40 min, then size-exclusion chromatography; C2 symmetry imposed; 3.7 Å. In general terms: In gel filtration, larger molecules generally elute earlier.

As for “TnsB transposase of the type V-K CAST element from Scytonema hofmanni (ShCAST), full length (enzyme)”, the stoichiometry N (usually a count of units in the complex or per binding partner) came to 4.
